Experiments:
[1] = target: Cynomolgus monkey LRP-8 expressed on HEK293 cells (cynomolgus monkey); assay: FACS, cyno LRP8 cells
[2] = target: Mouse LRP-8 expressed on HEK293 cells (mouse) (UniProt Q924X6); assay: FACS, mouse LRP8 cells
[3] = target: CR1 cyclic peptide of human LRP-8 (human); assay: ELISA using CR1 peptide

FACS (ratio +/-) [1]: 0.8
FACS (ratio +/-) [2]: 1
OD450 [3]: 0.08 OD450
Substance: Negative IgG control (Table 20) (antibody)

Reference: patent US20160200813A1
